T1: hNE (Homo sapiens, UniProt P08246)
T1 construct: purchased Elastin Products Company (EPC)
T1 sequence (P08246 30-247): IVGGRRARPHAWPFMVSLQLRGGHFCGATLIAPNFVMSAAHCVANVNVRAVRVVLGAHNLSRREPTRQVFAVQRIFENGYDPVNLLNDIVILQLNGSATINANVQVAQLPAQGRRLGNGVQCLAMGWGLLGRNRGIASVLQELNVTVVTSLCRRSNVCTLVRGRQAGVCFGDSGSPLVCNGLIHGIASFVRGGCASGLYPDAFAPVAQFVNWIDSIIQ

T2: proteolytic activity of COPD patient sputum (Homo sapiens, UniProt P08246)
T2 construct: Sputa from patients with cystic fibrosis, COPD or ciliary diskenisia above 18 years old were collected; from tissue; host or cells: expectorated sputum of patients with cystic fibrosis, COPD or ciliary dyskinesia
T2 sequence (P08246 30-267): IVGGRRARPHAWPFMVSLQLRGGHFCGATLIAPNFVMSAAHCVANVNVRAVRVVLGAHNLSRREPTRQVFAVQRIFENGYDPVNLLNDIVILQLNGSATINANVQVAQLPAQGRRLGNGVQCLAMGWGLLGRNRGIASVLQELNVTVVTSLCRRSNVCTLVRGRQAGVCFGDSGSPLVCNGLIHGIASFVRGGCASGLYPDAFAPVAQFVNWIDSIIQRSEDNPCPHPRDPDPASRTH

B1: NbE201: anti-hNE ISVD (VHH/nanobody) from immunized lama, amino acid sequence SEQ ID NO: 4 (protein)
VHH: QVQLQESGGGLVQAGGSLRLSCVVPGRTISLYRMGWFRQAPGKEREFVAGINWSGDMTDYVDSVKGRFTISRDNAKNTVYLEMNSLKPEDTAIYYCTADPKLLPLADSSYGYWGQGTQVTVSS
B2: NbE201-PEG40: NbE201-Cter conjugated via C-terminal cysteine to branched 40 kDa PEG-maleimide (conjugate)
VHH: QVQLQESGGGLVQAGGSLRLSCVVPGRTISLYRMGWFRQAPGKEREFVAGINWSGDMTDYVDSVKGRFTISRDNAKNTVYLEMNSLKPEDTAIYYCTADPKLLPLADSSYGYWGQGTQVTVSSSPSTPPTPSPSTPPC

Key:
[1] = target: T1, hNE; test: hNE inhibitory capacity after physical stress; type: biochemical; conditions: hNE: Nb molar ratio 1:1, compared to unexposed ISVD
Method: 2.2.1 Evaluation of the proteolytic activity inhibition on purified hNE. hNE activity was assessed by following the degradation of a chromogenic hNE substrate, N-succinyl-alanine-alanine-proline-valine-p-nitroanilide (suc-Ala-Ala-Pro-Val-pNA, Elastin products, Owensville, Missouri, USA), measuring the absorbance at 410 nm with a spectrophotometer (Spectramax ID5, Molecular Devices, San Jose, USA). The substrate was diluted to a concentration of 1.5 mM in a tris buffer (0.1M tris, 0.5M NaCl, 0.01% NaN3, pH 7.5) and 200 μl of this solution were added to the wells of a 96-well plate and heated at 37° C. Purified hNE (Elastin products) was reconstituted on ice in a 0.05M Sodium acetate (NaOAc), 0.1M NaCl buffer at pH5 to a concentration of 0.1 mg/ml. 10 μl of this hNE solution were added per well and the substrate degradation was followed during 20 min to verify the hNE activity in the wells. ISVDswere then added to the wells at the desired hNE: ISVD ratio, and the substrate degradation was then followed during 50 min. Slopes were calculated from the regression line drawn from the absorbance measurements and were expressed as a percentage of the hNE activity without ISVDs. […]

[2] = Pharmacokinetic study, intratracheal instillation, BAL content by ELISA; type: in vivo, mice
Method: 2.5.1. Instillation of mice and collection of BAL. […] Broncho-alveolar lavages (BAL), nasal lavages (NAL), blood samples, and lungs were collected 0, 4 or 24 h after instillation. BAL and NAL were collected with 2 ml and 1 ml of Hanks' Balanced Salt Solution (HBSS) buffer respectively. Cells were discarded from BAL and NAL samples via a 5 min centrifugation at 300 g and supernatants were stored at −20° C. Lungs were collected in 0.5 ml of HBSS buffer, ground (Precellys evolution, Bertin Technologies, Montigny-le-bretonneux, France) and centrifuged at 300 g for 15 min. Supernatants were stored at −20° C. Blood was collected by intra-cardiac puncture and stored in anti-coagulant tubes (Microvette®) 500, K3 EDTA, VWR) at −20° C. All samples were treated with an anti-protease cocktail (Roche).
2.5.2. ELISA analysis. ISVD and AAT content in the BALs collected in vivo were measured by a sandwich ELISA method. An ELISA conversion pack from Meso scale Discovery (Rockville, USA) was used for ISVD analysis, according to the manufacturer instructions. Uncoated Mesoscale compatible plates were coated with an anti-histag antibody (BioLegend, San Diego, USA). ISVDs were then detected with an anti-VHH antibody (Jackson ImmunoResearch, Ely, UK) mixed with an anti-goat Sulfo-TAG labelled antibody (Meso scale Discovery) and the signal was read with an MESO QuickPlex SQ 120 MM (Meso scale Discovery). AAT content in the samples was measured by a commercial ELISA kit (Human Serpin Al DuoSet ELISA, R&D system, Mineapolis, USA) according to manufacturer instructions.

[3] = target: T2, proteolytic activity of COPD patient sputum; test: Sputum proteolytic activity inhibition, COPD sputum; type: biochemical; conditions: 15 mg sputum, COPD patient in exacerbation
Method: 2.2.2 Evaluation of the proteolytic activity inhibition in CF, COPD and ciliary diskenisia sputa. […] Sputa collection procedures were evaluated by the local ethic committee (comité d'Ethique Hospitalo-Facultaire des Cliniques universitaires Saint-Luc) and approved under the Belgian registration number B4032021000071.
Sputum proteolytic activity was assessed by following with a spectrophotometer the absorbance at 410 nm of suc-Ala-Ala-Pro-Val-pNA degradation, the chromogenic hNE substrate. Sputa were classified as mucoid, muco-purulent or purulent (Serisier et al., 2009, Respir Res, 10 (1): 63. doi: 10.1186/1465-9921-10-6). According to the experiment, 10 to 20 mg of sputum were weighted in a 96-well plate. ISVDs were then added to the sputum samples and pre-incubated at 37° C. during different periods of time. The hNE substrate was diluted to a concentration of 1 mM in a tris buffer (0.1M tris, 0.5M NaCl, 0.01% Sodium azide (NaN3), pH 7.5) and 50 μl of this solution were added to the wells. The substrate degradation was followed during 50 min. […] Slopes were then calculated from the regression line drawn from the absorbance measurements and were expressed as a percentage of the sputum proteolytic activity without ISVDs.

| Molecule | loss of hNE inhibitory capacity after nebulization, agitation or F/T cycles [1] | percentage of the dose collected at time 0 quantified in BAL after 24 h ([2]; Swiss mice) | percentage of the dose collected at time 0 quantified in BAL after 24 h ([2]; β-ENaC mice) | inhibitory capacity in COPD sputum [3] |
| --- | --- | --- | --- | --- |
| B1 | the greatest losses were observed with nebulization and 4 h of agitation | 4.4% | 3.3% | No apparent differences in inhibitory capacity |
| B2 | did not display any significant loss of inhibitory activity | 65% | 56% | No apparent differences in inhibitory capacity |

Source: patent publication US20260209387A1, “SINGLE-DOMAIN ANTIBODY FOR INHIBITION OF NEUTROPHIL ELASTASE ACTIVITY” (UNIVERSITE DE LIEGE, priority 2023, published 2026)
